The results in this text go back to US20180362668A1 (JIANGSU ALPHAMAB BIOPHARMACEUTICALS, published 2018).

Series [1] deals with the molecule itself. The series is described as follows: non-reducing SDS-PAGE densitometry of Protein A-purified co-transfection product; chain A:chain B vectors 1:1. From the text: (§1) The cotransfection ratio of recombinant expression vector of the chain A to that of the chain B was 4:1, 1:1 and 1:4.
Series [2] concerns the molecule itself. The series is described as follows: non-reducing SDS-PAGE of Protein A-purified co-transfection product; chain A:chain B vectors 4:1. From the text:
(§2) The respective transient transfection products were obtained through Protein A affinity chromatography.

Series [3] concerns the molecule itself. Briefly: non-reducing SDS-PAGE of Protein A-purified co-transfection product; chain A:chain B vectors 1:4.
From the text: as §2

Series [4] concerns the molecule itself. Briefly: non-reducing SDS-PAGE densitometry of Protein A-purified co-transfection product; chain A:chain B vectors 1:1. The source holds these as a separate data set.
Series [5] deals with the molecule itself. Described as above. The text has this: The cotransfection ratio of recombinant expression vector of the chain A to that of the chain B was 1:1.
The source holds these as a separate data set.

Series [6] deals with the molecule itself. The series is described as follows: non-reducing SDS-PAGE densitometry of Protein A-purified co-transfection product; chain A:chain B vectors 1:4.
From the text: as §1

Series [7] deals with the molecule itself. Briefly: non-reducing SDS-PAGE densitometry of Protein A-purified co-transfection product; chain A:chain B vectors 4:1.
From the text: as §1

Series [8] deals with the molecule itself. Briefly: non-reducing SDS-PAGE densitometry of Protein A-purified co-transfection product; chain A:chain B vectors 1:1. From the text:
(§3) The cotransfection ratio of recombinant expression vector of the chain A to that of the chain B was 4:1, 1:1 and 1:4. The transiently expressed culture supernatant was collected after 5-6 days of cultivation.
The source holds these as a separate data set.

Series [9] deals with the molecule itself. The series is described as follows: non-reducing SDS-PAGE densitometry of Protein A-purified co-transfection product; chain A:chain B vectors 1:4.
From the text: as §3
This is another data set of the same source.

Series [10] concerns the molecule itself. The series is described as follows: non-reducing SDS-PAGE densitometry of Protein A-purified co-transfection product; chain A:chain B vectors 4:1.
From the text: as §3
The source holds these as a separate data set.

B1: ScFv-Fc fusion protein chain A with Y349C + T366W + K409A (Fc fusion)
chain: EVQLLESGGGVVQPGRSLRLSCIASGFTFSSYPMTWVRQAPGKGLEWVASISYDGSYKYKADSMKGRLTISRDNSKNTLYLEMNSLTAEDTAVYYCARTAFFNAYDFWGQGTLVTVSSASTKGPSVGGGGSGGGGSEIVMTQSPATLSVSPGERATLSCRASQSVRSNLAWYQQKPGQAPRLLIYAASTRATGIPARFSGSGSGTEFTLTISSLQSEDFAVYYCQQYNEWFRTSGQGTKVEIKRDKTHTCPPCPAPELLGGPSVFLFPPKPKDTLMISRTPEVTCVVVDVSHENPEVKFNWYVDGVEVHNAKTKPREEQYNSTYRVVSVLTVLHQDWLNGKEYKCKVSNKALPAPIEKTISKAKGQPREPQVCTLPPSRDELTKNQVSLWCLVKGFYPSDIAVEWESNGQPENNYKTTPPVLDSDGSFFLYSALTVDKSRWQQGNVFSCSVMHEALHNHYTQKSLSLSPGK
notes: Positions are EU index; also called combination 4 chain A
With B1, the “ScFv-Fc homodimer (%)” value was 13% in [1]; 46% in series [2]; 4% in [3]; 10% in series [4]; 21% in [5]; less than 1% in series [6]. In [7], the “ScFv-Fc homodimer (%)” value came to 46%.

B2: ScFv-Fc fusion protein chain A with Y349C + T366W + F405K (Fc fusion)
chain: EVQLLESGGGVVQPGRSLRLSCIASGFTFSSYPMTWVRQAPGKGLEWVASISYDGSYKYKADSMKGRLTISRDNSKNTLYLEMNSLTAEDTAVYYCARTAFFNAYDFWGQGTLVTVSSASTKGPSVGGGGSGGGGSEIVMTQSPATLSVSPGERATLSCRASQSVRSNLAWYQQKPGQAPRLLIYAASTRATGIPARFSGSGSGTEFTLTISSLQSEDFAVYYCQQYNEWFRTSGQGTKVEIKRDKTHTCPPCPAPELLGGPSVFLFPPKPKDTLMISRTPEVTCVVVDVSHENPEVKFNWYVDGVEVHNAKTKPREEQYNSTYRVVSVLTVLHQDWLNGKEYKCKVSNKALPAPIEKTISKAKGQPREPQVCTLPPSRDELTKNQVSLWCLVKGFYPSDIAVEWESNGQPENNYKTTPPVLDSDGSFKLYSKLTVDKSRWQQGNVFSCSVMHEALHNHYTQKSLSLSPGK
notes: Positions are EU index; also called combination 2 chain A
B2: the “ScFv-Fc homodimer (%)” value was 9% in series [8]; less than 1% in series [9]; 23% in series [2]; less than 1% in series [3]; 10% in series [4]; 28% in series [10]. The “ScFv-Fc homodimer (%)” value in series [5] worked out at 17%.
